Results: US10736988B2, “Bone substitute nanocomposites and methods of synthesis using multiphosphorylated peptides” (UNIVERSITY OF PITTSBURGH—OF THE COMMONWEALTH SYSTEM OF …, priority 2012, dated 2020)
Like-named read-outs stand apart in the source and are kept apart here.

What was measured:
[1] = tested on: collagen fibrils; details: cited from earlier work
[2] = tested on: rabbit ulna critical size defect; assay: In vivo bone regeneration, rabbit ulna critical size defect
Source text: A collagen scaffold containing […] indicated by SEQ NO. 2 peptide was implanted into a critical size defect in a rabbit ulna model. […] 2 peptide eight weeks after the surgery. […] FIG. 10A is a low-magnification image and FIG. 10B is a close up of the area in FIG. 10A identified by a rectangle, of H&E stained nondecalcified sections of the regenerating ulnar bone eight weeks after the surgery.

B1: dentin matrix protein 1 (protein, UniProt Q13316 17-513, looked up)
Dentin matrix acidic …: LPVTRYQNNESEDSEEWKGHLAQAPTPPLESSESSEGSKVSSEEQANEDPSDSTQSEEGLGSDDHQYIYRLAGGFSRSTGKGGDDKDDDEDDSGDDTFGDDDSGPGPKDRQEGGNSRLGSDEDSDDTIQASEESAPQGQDSAQDTTSESRELDNEDRVDSKPEGGDSTQESESEEHWVGGGSDGESSHGDGSELDDEGMQSDDPESIRSERGNSRMNSAGMKSKESGENSEQANTQDSGGSQLLEHPSRKIFRKSRISEEDDRSELDDNNTMEEVKSDSTENSNSRDTGLSQPRRDSKGDSQEDSKENLSQEESQNVDGPSSESSQEANLSSQENSSESQEEVVSESRGDNPDPTTSYVEDQEDSDSSEEDSSHTLSHSKSESREEQADSESSESLNFSEESPESPEDENSSSQEGLQSHSSSAESQSEESHSEEDDSDSQDSSRSKEDSNSTESKSSSEEDGQLKNIEIESRKLTVDAYHNKPIGDQDDNDCQDGY
For B1, the collagen fibril mineralization ([1]; nonphosphorylated protein) is listed as “no organized mineralization of collagen fibrils was observed” and the collagen fibril mineralization ([1]; phosphorylated protein) is listed as “highly organized mineralized collagen fibrils”.

B2: phosphophoryn (protein, UniProt Q9NZW4 463-1301, looked up)
Dentin phosphoprotein: DDPNSSDESNGNDDANSESDNNSSSRGDASYNSDESKDNGNGSDSKGAEDDDSDSTSDTNNSDSNGNGNNGNDDNDKSDSGKGKSDSSDSDSSDSSNSSDSSDSSDSDSSDSNSSSDSDSSDSDSSDSSDSDSSDSSNSSDSSDSSDSSDSSDSSDSSDSKSDSSKSESDSSDSDSKSDSSDSNSSDSSDNSDSSDSSNSSNSSDSSDSSDSSDSSSSSDSSNSSDSSDSSDSSNSSESSDSSDSSDSDSSDSSDSSNSNSSDSDSSNSSDSSDSSNSSDSSDSSDSSNSSDSSDSSDSSNSSDSSDSSDSSDSSDSSNSSDSNDSSNSSDSSDSSNSSDSSNSSDSSDSSDSSDSDSSNSSDSSNSSDSSDSSNSSDSSDSSDSSDGSDSDSSNRSDSSNSSDSSDSSDSSNSSDSSDSSDSNESSNSSDSSDSSNSSDSDSSDSSNSSDSSDSSNSSDSSESSNSSDNSNSSDSSNSSDSSDSSDSSNSSDSSNSSDSSNSSDSSDSNSSDSSDSSNSSDSSDSSDSSDSSDSSDSSNSSDSSDSSDSSDSSNSSDSSNSSDSSNSSDSSDSSDSSDSSDSSDSSDSSDSSNSSDSSDSSDSSDSSDSSDSSDSSDSSESSDSSDSSNSSDSSDSSDSSDSSDSSDSSDSSDSSDSSNSSDSSDSSDSSDSSDSSNSSDSSDSSESSDSSDSSDSSDSSDSSDSSDSSDSSDSSNSSDSSDSSDSSDSSDSSDSSDSSDSSDSSDSSDSSDSSDSSDSSDSSDSSDSNESSDSSDSSDSSDSSNSSDSSDSSDSSDSTSDSNDESDSQSKSGNGNNNGSDSDSDSEGSDSNHSTSDD
modifications: Dentin phosphoprotein
notes: major non-collagenous protein in dentin, Ser-Ser-Asp repeat motifs
In the case of B2, the collagen fibril mineralization ([1]; nonphosphorylated protein) is listed as “no organized mineralization of collagen fibrils was observed” and the collagen fibril mineralization ([1]; phosphorylated protein) is listed as “highly organized mineralized collagen fibrils”.

B3: … (peptide)
chain: RRRDEDESSDSSDSSDSSDSSDSSDSSDSSDSSDSSDSSDSSDSSDSSDSSDSSDSSDSSDSSDSSDDEG
modifications: derived from consensus mammalian sequence of DSPP; (8)..(68) [Asp Ser Ser] repeats (n varies from 2 to 20); (1)..(3) Insertion of 3 Arg at the N terminus of the peptide; (4)..(7) Casein kinase 1 recognition motif; (69)..(71) Casein kinase 2 recognition motif
For B3, the “bone re-growth (MicroCT)” value ([2]; collagen scaffold containing peptide, 8 weeks, versus no implant) was “significant bone re-growth” and the “bridging of the defect (H&E nondecalcified sections)” value ([2]; eight weeks after the surgery) was “almost complete bridging of the critical size defect by bone”.
